For seven molecules, EC50 results are on record in patent US20230391854A1 (Innovent, published 2023).

First the molecules themselves.
B1: P15-16 (antibody, V domains shown)
VH: QVQLVESGGGLVQPGRSLTLSCAASGFTFDDYAMHWVRQAPGKGLEWVSGISWNSGTIDYADSVKGRFTISRDNAKNSLYLQMNSLRAEDTALYYCATLPRERAYSGYDRIFYTIDVWGQGTTVTVSS
VL: not shown
notes: also called candidate antibody molecule P15-16
B2: P3-11 (antibody, V domains shown)
VH: QVQLVESGGGLVQPGGSLRLSCAASGITVSSNYMSWVRQAPGKGLEWVSVIYSGGSTFYADPVKGRLTISRDNSKNTLYLQMNSVRVEDTAVYYCARGEGWELPFDYWGQGALVTVSS
VL: QSALTQPPSASGSPGQSVTISCTGTSSDVGGNKYVSWYQQHPGKAPKLIIYEVSKRPSGVPDRFSGSKSGNTASLTVSGLQAEDEADYHCSSYAGSNNLVFGGGTKLTVL
notes: also called candidate antibody molecule P3-11
B3: P5-22 (antibody, V domains shown)
VH: EVQLVESGGGLVKPGGSLRLSCAASGFTFRDYDIIWIRQAPGKGLEWVSYISRSGSTIYYSDSVRGRFTISRDNAKNSVYLQMNSLRAEDTAVYYCARDFGFEGPRMDVWGQGTTVTVSS
VL: DIQMTQSPSSLSASVGDRVTITCQASQDIKNYLNWYQQKPGKAPKLLIYDASNLETGVPSRFSGSGSGTDFTFTISSLQPEDIATYYCQQFDNLPITFGQGTRLEIK
notes: also called candidate antibody molecule P5-22
B4: P10-20 (antibody, V domains shown)
VH: QVQLVESGGGLVKPGGSLRLSCAASGFTFSDYYMSWIRQAPGKGLEWVSYISISSTYTNYADSVKGRFTISRDNAKNSLYLQMNSLRAEDTAVYYCVIAAAGKGHYYYGMDVWGQGTTVTVSS
VL: not shown
notes: also called candidate antibody molecule P10-20
B5: P14-37 (antibody, V domains shown)
VH: EVQLVESGGGLVKPGGSLRLSCAASGFTFSNAWMSWVRQAPGKGLEWVGRIKRNSDGGTTDHAAPVTGRFIISRDDSKNTLYLQMNSLRTEDTAVYYCTTDLDTVVRRVVITDHDAFDIWGQGTMVTVSS
VL: DIQMTQSPSSLSASVGDRVTITCRASQSISSFLNWYQQKAGKAPKLLIYAASSLQSGVPSRFSGSGSGTDFSLTISNLQPEDFATYYCQQSYSTPSITFGQGTRLEIK
notes: also called candidate antibody molecule P14-37
B6: P14-44 (antibody, V domains shown)
VH: QVQLVQSGAEVKKPGASVKVSCKASGYIFTSYSMHWVRQAPGQGLEWMGTIKPSDDSTNYAQKFQGRVSMTRDTSTSTVYMELSSLRYEDTAVYYCAREARGYYDRSGYYHPGYFDYWGQGTLVTVSS
VL: QSVLTQPASVSGSPGQSITISCTGTSSDVGGYNFVSWYQQHPGKAPKLMIYEVSDRPSGVSSRFSGSKSGNTASLTISGLQAEDEADYYCFSYTTSTTWVFGGGTKLTVL
notes: also called candidate antibody molecule P14-44
B7: P23-29 (antibody, V domains shown)
VH: QVQLQESGPGLVKPSETLSLTCTVSGDSISSSTYYWGWIRQPPGKGLEWIGSMYYGRSTYYNPSLKSRVTVSVDTSKNQLSLKVSSVTAADTAVYYCARHLGGVDYWGQGTLVTVSS
VL: DIQMTQSPSSLSASVGDRVTITCRASQGISNSLAWYQQEPGKAPKLLLYAASTLESGVPSRFSGSGSGADSTLTISSLQPEDFATYYCQQYYSASALTFGGGTKVEIK
notes: also called candidate antibody molecule P23-29

By EC50 is commonly meant the concentration that produces a half-maximal response. Read a low EC50 as higher potency in that assay.

For the experiment, the target named is nCoV S (ACRO, SPN-C52H4) (SARS-CoV-2, UniProt P0DTC2 16-1213).
Take B1: the response was half-maximal at 0.0228 nM (EC50).

B2 displayed an EC50 of 0.0226 nM.

Take B3: the midpoint of the response, the EC50, lay at 0.0226 nM.

With B4, the EC50 is 0.0184 nM.

In turn, B5 gave an EC50 of 0.0161 nM.

The molecule B6 came in with an EC50 of 0.0213 nM.

With B7, the response was half-maximal at 0.0364 nM (EC50). This EC50 is about 1.7-fold higher than that of the molecule before.
